Measurements reported in article doi:10.1101/2021.09.16.460654.

Molecular target: S. aureus FakA (S. aureus)

**Q.** With “FakB1(A121I) (from UniProt X5EH37 1-288) (natural protein)” as the substance, how does the apparent KM for FakB1(A121I) in the FA kinase assay (0.2 µM FakA, [14C]16:0) read?
**A.** 0.1 µM

**Q.** “FakB1(A158L) (from UniProt X5EH37 1-288) (natural protein)” was tested. Which apparent KM for FakB1(A158L) in the FA kinase assay (0.2 µM FakA, [14C]16:0) did it give?
**A.** 0.13 µM

**Q.** Which apparent KM for FakB1 in the FA kinase assay (0.2 µM FakA, [14C]16:0) does the source give for “S. aureus wild-type FakB1 (from UniProt X5EH37 1-288) (natural protein)” here?
**A.** 0.13 µM
